The record followed here is patent US20060257938A1, “Method of screening for drugs that block ligand binding to a lipid binding protein” (priority 2005, published 2006).

Where “and” joins values, the source holds several entries; their conditions need not be identical. Identical values can stand only once.

Common to all, as to assay type: binding
Details in all cases: response relative to ADIFAB2

The nature of test [1]: Probe fluorescence ratio response to arachidonic acid relative to ADIFAB2. The method, boiled down: (§1)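 Fluorescently labeled rat intestinal FABP variants were read at two emission wavelengths, near the unbound maximum (about 420 to 480 nm) and the FFA-bound maximum (about 495 to 580 nm). R = Fλ1/Fλ2 after subtracting probe-free intensity; ΔR = R+agent − R0, normalized to ADIFAB2 (rI-FABP-L72A).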

The nature of test [2]: Probe fluorescence ratio response to linolenic acid relative to ADIFAB2. The essentials:
as §1

Test [3] is described as follows: Probe fluorescence ratio response to linoleic acid relative to ADIFAB2. The method, boiled down:
as §1

Test [4] can be described thus: Probe fluorescence ratio response to oleic acid relative to ADIFAB2. The essentials:
as §1

Test [5] can be described thus: Probe fluorescence ratio response to palmitic acid relative to ADIFAB2. The method, boiled down:
as §1

B1: 68D, 72A (protein, listed as Rattus norvegicus)
chain: AFDGTWKVDRNENYEKFMEKMGINVVKRKLGAHDNLKLTITQEGNKFTVKESSNFRNIDVVFELGVDDAYSAADGTELTGTWTMEGNKLVGKFKRVDNGKELIAVREISGNELIQTYTYEGVEAKRIFKKE
modifications: PEPTIDE (1)...(131) wild-type rat intestinal fatty acid binding protein
With B1, in test [1] (Arachidonic acid), the “DR/DR AA” value came out at 1.24. The “DR/DR LNA” value in test [2] came to 1.23. Further, the “DR/DR LA” value in test [3] is 1.23. In test [4], the “DR/DR OA” value was 1.13. The “DR/DR PA” value in test [5] turned out to be 0.52.

B2: 70C, 72A (protein, listed as Rattus norvegicus)
chain: AFDGTWKVDRNENYEKFMEKMGINVVKRKLGAHDNLKLTITQEGNKFTVKESSNFRNIDVVFELGVDFACSAADGTELTGTWTMEGNKLVGKFKRVDNGKELIAVREISGNELIQTYTYEGVEAKRIFKKE
modifications: PEPTIDE (1)...(131) wild-type rat intestinal fatty acid binding protein
As to B2, the “DR/DR AA” value in test [1] (Arachidonic acid) was determined as 0.23. Moreover, in test [2], the “DR/DR LNA” value came to 0.24. Also, the “DR/DR LA” value in test [3] came to 0.27. In addition, the “DR/DR OA” value in test [4] stood at 0.24. For the same molecule, in test [5], the “DR/DR PA” value stood at 0.14.

B3: 68I, 72A (protein, listed as Rattus norvegicus)
chain: AFDGTWKVDRNENYEKFMEKMGINVVKRKLGAHDNLKLTITQEGNKFTVKESSNFRNIDVVFELGVDIAYSAADGTELTGTWTMEGNKLVGKFKRVDNGKELIAVREISGNELIQTYTYEGVEAKRIFKKE
modifications: PEPTIDE (1)...(131) wild-type rat intestinal fatty acid binding protein
B3: the “DR/DR AA” value in test [1] (Arachidonic acid) is 0.42. Further, the “DR/DR LNA” value in test [2] is given as 0.36. Also, in test [3], the “DR/DR LA” value amounted to 0.37. Also, the “DR/DR OA” value in test [4] is recorded as 0.39. Moreover, the “DR/DR PA” value in test [5] came to 0.35.

B4: 68M, 72A (protein, listed as Rattus norvegicus)
chain: AFDGTWKVDRNENYEKFMEKMGINVVKRKLGAHDNLKLTITQEGNKFTVKESSNFRNIDVVFELGVDMAYSAADGTELTGTWTMEGNKLVGKFKRVDNGKELIAVREISGNELIQTYTYEGVEAKRIFKKE
modifications: PEPTIDE (1)...(131) wild-type rat intestinal fatty acid binding protein
Regarding B4, in test [1] (Arachidonic acid), the “DR/DR AA” value is listed as 0.52. In test [2], the “DR/DR LNA” value was 0.35. For the same molecule, the “DR/DR LA” value in test [3] was found to be 0.34. Moreover, the “DR/DR OA” value in test [4] was found to be 0.35. Besides, in test [5], the “DR/DR PA” value is listed as 0.33.

B5: 68T, 72A (protein, listed as Rattus norvegicus)
chain: AFDGTWKVDRNENYEKFMEKMGINVVKRKLGAHDNLKLTITQEGNKFTVKESSNFRNIDVVFELGVDTAYSAADGTELTGTWTMEGNKLVGKFKRVDNGKELIAVREISGNELIQTYTYEGVEAKRIFKKE
modifications: PEPTIDE (1)...(131) wild-type rat intestinal fatty acid binding protein
As for B5, the “DR/DR AA” value in test [1] (Arachidonic acid) is 0.18. Moreover, the “DR/DR LNA” value in test [2] is given as 0.12. Besides, the “DR/DR LA” value in test [3] stood at 0.11. Besides, the “DR/DR OA” value in test [4] came out at 0.13. Further, in test [5], the “DR/DR PA” value is listed as 0.10.

B6: 68Q, 72A (protein, listed as Rattus norvegicus)
chain: AFDGTWKVDRNENYEKFMEKMGINVVKRKLGAHDNLKLTITQEGNKFTVKESSNFRNIDVVFELGVDQAYSAADGTELTGTWTMEGNKLVGKFKRVDNGKELIAVREISGNELIQTYTYEGVEAKRIFKKE
modifications: PEPTIDE (1)...(131) wild-type rat intestinal fatty acid binding protein
With B6, the “DR/DR AA” value in test [1] (Arachidonic acid) is 0.47. Also, the “DR/DR LNA” value in test [2] is on record as 0.38. In test [3], the “DR/DR LA” value is recorded as 0.43. Moreover, the “DR/DR OA” value in test [4] worked out at 0.45. In test [5], the “DR/DR PA” value was 0.28.

B7: 68V, 72A (protein, listed as Rattus norvegicus)
chain: AFDGTWKVDRNENYEKFMEKMGINVVKRKLGAHDNLKLTITQEGNKFTVKESSNFRNIDVVFELGVDVAYSAADGTELTGTWTMEGNKLVGKFKRVDNGKELIAVREISGNELIQTYTYEGVEAKRIFKKE
modifications: PEPTIDE (1)...(131) wild-type rat intestinal fatty acid binding protein
As to B7, in test [1] (Arachidonic acid), the “DR/DR AA” value came out at 0.29. Further, the “DR/DR LNA” value in test [2] worked out at 0.22. Further, in test [3], the “DR/DR LA” value was found to be 0.23. Also, the “DR/DR OA” value in test [4] is on record as 0.25. For the same molecule, the “DR/DR PA” value in test [5] was determined as 0.19.

B8: 68S, 72A (protein, listed as Rattus norvegicus)
chain: AFDGTWKVDRNENYEKFMEKMGINVVKRKLGAHDNLKLTITQEGNKFTVKESSNFRNIDVVFELGVDSAYSAADGTELTGTWTMEGNKLVGKFKRVDNGKELIAVREISGNELIQTYTYEGVEAKRIFKKE
modifications: PEPTIDE (1)...(131) wild-type rat intestinal fatty acid binding protein
For B8, the “DR/DR AA” value in test [1] (Arachidonic acid) turned out to be 0.20. Moreover, the “DR/DR LNA” value in test [2] was determined as 0.14. Moreover, the “DR/DR LA” value in test [3] was determined as 0.14. Besides, in test [4], the “DR/DR OA” value is listed as 0.14. In addition, the “DR/DR PA” value in test [5] was determined as 0.10.

B9: 68G, 72A (protein, listed as Rattus norvegicus)
chain: AFDGTWKVDRNENYEKFMEKMGINVVKRKLGAHDNLKLTITQEGNKFTVKESSNFRNIDVVFELGVDGAYSAADGTELTGTWTMEGNKLVGKFKRVDNGKELIAVREISGNELIQTYTYEGVEAKRIFKKE
modifications: PEPTIDE (1)...(131) wild-type rat intestinal fatty acid binding protein
As to B9, in test [1] (Arachidonic acid), the “DR/DR AA” value stood at 0.24. Besides, in test [2], the “DR/DR LNA” value stood at 0.18. Besides, the “DR/DR LA” value in test [3] came out at 0.17. In addition, in test [4], the “DR/DR OA” value came to 0.21. For the same molecule, the “DR/DR PA” value in test [5] is recorded as 0.12.

B10: 68L, 72A (protein, listed as Rattus norvegicus)
chain: AFDGTWKVDRNENYEKFMEKMGINVVKRKLGAHDNLKLTITQEGNKFTVKESSNFRNIDVVFELGVDLAYSAADGTELTGTWTMEGNKLVGKFKRVDNGKELIAVREISGNELIQTYTYEGVEAKRIFKKE
modifications: PEPTIDE (1)...(131) wild-type rat intestinal fatty acid binding protein
Turning to B10, the “DR/DR AA” value was 0.66 in test [1] (Arachidonic acid) and 0.658 in test [1] (arachidonic acid). Further, the “DR/DR LNA” value in test [2] is given as 0.52. Also, the “DR/DR LA” value in test [3] stood at 0.53. The “DR/DR OA” value in test [4] was 0.55 and 0.547. In addition, the “DR/DR PA” value in test [5] is 0.52 and 0.524.

B11: 68N, 72A (protein, listed as Rattus norvegicus)
chain: AFDGTWKVDRNENYEKFMEKMGINVVKRKLGAHDNLKLTITQEGNKFTVKESSNFRNIDVVFELGVDNAYSAADGTELTGTWTMEGNKLVGKFKRVDNGKELIAVREISGNELIQTYTYEGVEAKRIFKKE
modifications: PEPTIDE (1)...(131) wild-type rat intestinal fatty acid binding protein
In the case of B11, the “DR/DR AA” value in test [1] (Arachidonic acid) is 0.67. In test [2], the “DR/DR LNA” value is 0.60. The “DR/DR LA” value in test [3] was 0.67. The “DR/DR OA” value in test [4] amounted to 0.63. Besides, in test [5], the “DR/DR PA” value was 0.35.

B12: 68Y, 72A (protein, listed as Rattus norvegicus)
chain: AFDGTWKVDRNENYEKFMEKMGINVVKRKLGAHDNLKLTITQEGNKFTVKESSNFRNIDVVFELGVDYAYSAADGTELTGTWTMEGNKLVGKFKRVDNGKELIAVREISGNELIQTYTYEGVEAKRIFKKE
modifications: PEPTIDE (1)...(131) wild-type rat intestinal fatty acid binding protein
For the molecule B12, the “DR/DR AA” value in test [1] (Arachidonic acid) was 0.42. For the same molecule, in test [2], the “DR/DR LNA” value amounted to 0.41. The “DR/DR LA” value in test [3] worked out at 0.36. Further, the “DR/DR OA” value in test [4] stood at 0.46. In test [5], the “DR/DR PA” value is 0.35.

B13: 68E, 72A (protein, listed as Rattus norvegicus)
chain: AFDGTWKVDRNENYEKFMEKMGINVVKRKLGAHDNLKLTITQEGNKFTVKESSNFRNIDVVFELGVDEAYSAADGTELTGTWTMEGNKLVGKFKRVDNGKELIAVREISGNELIQTYTYEGVEAKRIFKKE
modifications: PEPTIDE (1)...(131) wild-type rat intestinal fatty acid binding protein
B13: the “DR/DR AA” value in test [1] (Arachidonic acid) came out at 0.89. Moreover, the “DR/DR LNA” value in test [2] is listed as 0.92. In test [3], the “DR/DR LA” value is 0.96. For the same molecule, the “DR/DR OA” value in test [4] amounted to 0.91. In addition, the “DR/DR PA” value in test [5] is reported as 0.53.

B14: 102Y, 72A (protein, listed as Rattus norvegicus)
chain: AFDGTWKVDRNENYEKFMEKMGINVVKRKLGAHDNLKLTITQEGNKFTVKESSNFRNIDVVFELGVDFAYSAADGTELTGTWTMEGNKLVGKFKRVDNGKEYIAVREISGNELIQTYTYEGVEAKRIFKKE
modifications: PEPTIDE (1)...(131) wild-type rat intestinal fatty acid binding protein
Regarding B14, the “DR/DR AA” value in test [1] (arachidonic acid) is 0.72 and 0.718. Further, in test [2], the “DR/DR LNA” value is 0.73 and 0.732. Moreover, the “DR/DR LA” value in test [3] is 0.82 and 0.818. Further, the “DR/DR OA” value in test [4] is recorded as 0.86. Also, the “DR/DR PA” value in test [5] is 0.39 and 0.387.

B15: 104D1, 72A (protein, listed as Rattus norvegicus)
chain: AFDGTWKVDRNENYEKFMEKMGINVVKRKLGAHDNLKLTITQEGNKFTVKESSNFRNIDVVFELGVDFAYSAADGTELTGTWTMEGNKLVGKFKRVDNGKELIDVREISGNELIQTYTYEGVEAKRIFKKE
modifications: PEPTIDE (1)...(131) wild-type rat intestinal fatty acid binding protein
Regarding B15, the “DR/DR AA” value in test [1] (arachidonic acid) came to 0.48. Also, the “DR/DR LNA” value in test [2] is reported as 0.67. Further, the “DR/DR LA” value in test [3] is given as 0.71. Also, the “DR/DR OA” value in test [4] turned out to be 0.64. The “DR/DR PA” value in test [5] is listed as 0.34.
